Measurements published in US20250357519A1, “APPLICATIONS OF O2-INSENSITIVE FORMATE DEHYDROGENASE” (UNIVERSITY OF MARYLAND, BALTIMORE, priority 2022, published 2025).

Columns and labels:
equine cytochrome c = test: Reduction of equine cytochrome c by DvH-FDH2; format: biochemical
[1] = Phenazine ethosulfate (PES)/dichlorophenolindophenol (DCPIP) assay of formate oxidation by DvH-FDH2; format: biochemical, Desulfovibrio vulgaris Hildenborough; details: PES/DCPIP-based
From the text: FIG. 38. Experimental workflow for aerobic PES/DCPIP assay. Prepare cuvette (1), fill with reaction mix (2), add stirrer (3), initiate kinetics by the addition of DvH-FDH2 while the contents of the cuvette are being mixed (4), and continue data collection until completion (5). Blue arrows shown at the bottom in steps 4 and 5 denote stirring.
FIG. 39. Experimental workflow for anaerobic PES/DCPIP assay. Setup cuvette (1,2), add reaction mix (3), gas with argon (4), start the reaction by injecting DvH-FDH2 (5), and collect data until the reaction goes to completion (6). Blue arrows shown at the bottom in steps 4-6 represent stirring.
In this dye-linked assay, PES (Em,7=+65 mV) serves as the primary electron acceptor. Following its reduction by FDH2, PES nonenzymatically transfers electrons to a second dye, DCPIP, facilitating spectrophotometric detection.^91 Workflows are described in FIGS. 38 and 39. PES was chosen over PMS because of its long-term stability.^120 Furthermore, necessary precautions were taken in handling and preparing the reagents, including protecting the reagents from light.^187 DvH-FDH2 was assayed in 1 mM PES (Sigma-Aldrich P4544-1G)/93 μM DCPIP (98% pure; Acros 152870100) in 50 mM Tris pH 8.0. […] Assays were performed using a UV-2600i spectrophotometer (Shimadzu Life Sciences) equipped with T2 Peltier/stirrer accessory (Quantum) and monitored at 600 nm. […]

[2] = H2O2 production, coumarin boronic acid (CBA) assay; format: biochemical, Desulfovibrio vulgaris Hildenborough; details: aerobic catalysis, formate between 1 and 10 Km
Description: Coumarin Boronic Acid (CBA) Assay. 10 mg of coumarin boronic acid (CBA) Cayman Chemicals 14051) was dissolved in 3.33 mL of DMSO. 101 μL of the CBA stock and 1.6 μL 0.5MDTPA were added to 3.9 mL 50 mM sodium phosphate pH 7.4 to produce a 2× working solution. The remaining steps essential identical to those used in the AR assay except that the plate was shaken at 400 rpm in an incubator (23° C.) for 15 min prior to CBA addition. Fluorescence detection was initiated by addition of 50 μL of the CBA 2× working solution, and the plate was scanned in fluorescence mode (excitation 332 nm and emission 470 nm). This method was also used in the context of redox bifurcation to quantify H2O2 production by DvH-FDH2 in the presence of 30 μM cytochrome c. Independently, the latter was incubated with H2O2 for the same duration (in the absence of DvH-FDH2) to assess the extent of peroxidase activity. Cytochrome c concentration was estimated as follows: oxidized ε410=106.1 mM^−1 cm^−1 and reduced ε550=29.5 mM^−1 cm^−1.
The following controls were common to both CBA and AR assays. (1) Heat-denatured DvH-FDH2, (2) addition of catalase (100 U/mL), (3) addition of SOD (10 U/mL), (4) FDH2 omitted, (5) fluorogenic substrate excluded, (6) formate excluded, and (7) buffer only.

[3] = H2O2 production, Amplex Red (AR) method; format: biochemical, Desulfovibrio vulgaris Hildenborough; details: aerobic DvH-FDH2 catalysis, AR assay
[4] = Oxygen consumption (Clark-type O2 electrode oximetry); format: biochemical, Desulfovibrio vulgaris Hildenborough

B1: DvH-FDH2 (protein)
chain 1: MRMPRRTFIKLASASAGALAFAGLGQSLAPTVARAAELKIAKAKVTPSVCCFCAVGCGLLVYTDTQTGRSINIEGDPDHPTNEGTLCPKGASIWQTTERSKRVTKVLYRAPGAAAWEEKSWDWALPRIARKIKETRDATFELTNDKGQTVNRTRGIASVGSAAVDNEEGWLMQAMMRALGLVYIESHARIUHSSTVGALAESYGRGAMTNHWIDLKNSDVILIMGSNAAENHPISFKWVTRAQERGATLIHVDPRFTRTSAKADIHAHIRSGTDIAFFGGLIRYIMENDLFFRQYVVDYTNASYIVGADYGFADGLFTGFDAEKGTYNTKKWAFAADENGMTLKDPTLNDPRCVFQLMKAHYARYDRKTVSDVTGISEEQLATLWSTFASTGKPDRAGTILYAMGQCQHTVGVQNIRALSMIQLLLGNIGIAGGGVNALRGESNVQGTTDISLLCDNLSGYLPTPKASWATFDDYVKGTTPVDKDPKSANWWSNRGKYLASYMKSVYPTASHQDGYLWHPKVDDGKITDYSWLQIFERMSKGGFKGAFVWGQNPCAGGANAGKNRKAMETLDWMVVVNLFENESSLFWKGPGVDPAKVKTEVFFLPACMSVEKGGSIANSGRWLQWREPGPKPMGDSRSDGDIVLDLYDEIRKLYREEKGAFPEPVLALDTDYRTDGKYDHHKVAKTLNGKFLTDVTIGDKTYKAGQQVPGFAMLQADGSTTSGCWIFTGCYTDAGNMMARRDRTQTPEQAAIGLFPNWSYAWPANRRILYNRAAVDMTGKPFDPKRAVIAWNGEKWVGDVPDGGWKPGEKLPFIMIREGRGQLFGPGRVDGPFPEHYEPFESPLESHPFSKQRVNPTALAFSHEPKAVRDKRYPFICTTYRVTEQWQSGTMTRNTGWLKEMQPEGFCEISRELAKELGIANGDAVVLESLRGKVQVVAIVTPRLKPFKVMGEVMHEVGIPWQFGWGQHVGKGDSANLLSPSVGDPNTGIPETKVFMVNLRKA
chain 2: MRPLGSLPQGMRRVSRRHIREAYMNGKTFFIDQTRCTACRGCQAACKQWKKFGSIETRNTGSYQNPPDLGPSTFKLVRFNEVEVDGKLKWLFFPEQCRHCLEPPCKMVADALIPGAIVQDAETGAVLYTEKTKGLDYMEVRSACPYDIPRQDPATGLLTKCNMCIDRVQNGMLPACVKTCPTGTMHFGDRADMLELAQKRLGEVKKRSPAALLADSDLVRVLYLCELAPANYHSHMVAEADTSRIGPFSRRALLRLRPFA
modifications: non-natural residues; left off: small tags and cut ends
Equine cytochrome c; anaerobic conditions
  native equine cytochrome c reduction: stoichiometric reduction
Equine cytochrome c; in air, 30 μM cytochrome c, 10 μM formate
  native equine cytochrome c reduced: ~80%
[1]
  kcat/Km for formate oxidation, fold higher than aerotolerant Mo-Cys-FDH from Rhodobacter capsulatus (NAD^+): ~500 fold
[2]
  H2O2 production: 64±6%
[3]
  H2O2 produced per mole of formate oxidized: roughly 0.75 mol
[4]; oximetry, catalase added after equilibrium
  electron flux towards hydrogen peroxide generation (u/v value): ~80%
[4]; oximetry, catalase added after equilibrium, likely an underestimate
  fraction of electrons from formate ending up in H2O2 (x/y value): roughly one quarter
[4]; presence vs absence of catalase
  O2 uptake lower in presence of catalase (initial velocities): 50%
